According to patent US11473061B2, “Systems and methods for growth of intestinal cells in microfluidic devices” (Cedars-Sinai Medical Center, priority 2016, dated 2022):

Key:
[1] = test system: iFGEs; assay: Seahorse mitochondrial stress test in iFGEs; type: cell-based, human; settings: low-dose EDC treatment
Description: (§2) The Seahorse XF^e24 Extracellular Flux Analyzer (Seahorse Biosciences) was used to perform mitochondrial stress tests and obtain real-time measurements of oxygen consumption rate (OCR) in cells. iFGEs and iHTNS treated with or without EDCs were seeded in a 24-well Seahorse culture plate at a density of 10,000-15,000 cells/well. For analysis of OCR, cells were reconstituted in Seahorse base medium and were allowed to settle for 1 hour at 37° C. in non-CO2 incubator before measurements. Chemical reagents (Sigma) were used at final concentrations as follows: 1 μM Oligomycin—an ATP synthase inhibitor, 1 μM (FCCP) carbonyl cyanide 4-(trifluoromethoxy)phenylhydrazone—an uncoupling agent, and a mixture of 0.50 μM antimycin A—a cytochrome C reductase inhibitor and 0.5 μM rotenone—a complex I inhibitor. Results were normalized to protein concentration determined by BCA assay (Thermo Scientific).

[2] = test system: iHTNs; assay: Seahorse mitochondrial stress test in iHTNs; type: cell-based, human; settings: low-dose EDC treatment
Description: as §2

[3] = test system: human intestinal epithelial cells derived from IPSCs; assay: Transepithelial electrical resistance (TEER) in microfluidic chips; type: cell-based; settings: 10 ng/ml of IFNgamma, basal administration, over time
Description: (§1) Human intestinal epithelial cells derived from IPSCs were treated with 10 ng/ml of IFNgamma. The basal administration of IFNg leads to a decrease in transepithelial resistance and an increase in the efflux of dextran FITC in human intestinal epithelial cells derived from IPSCs. Basically this means that the intestinal epithelium is more permeable in response to this cytokine.

[4] = test system: human intestinal epithelial cells derived from IPSCs; assay: Dextran FITC permeability of iPSC-derived intestinal epithelium; type: cell-based; settings: for basal accumulation of FITC dextran: after addition to the apical layer; for permeability co-efficient (FITC dextran added to the apical channel): microfluidic chips
Description: as §1

[5] = test system: hindgut intestinal cells; assay: TEER of hindgut intestinal cells grown in transwell; type: cell-based, human; settings: for TEER / transepithelial resistance: transwell, compared to control
Description: FIG. 76. Depiction of exemplary transwell apparatus, including deposit of cells on a membrane and measurement of electrical properties via electrodes spanning both sides of the chamber.
FIG. 79. TEER measurement of hindgut intestinal cells growth in transwell.
FIG. 81. Another depiction of IFNγ responsiveness for cells grown in a transwell system.

[6] = test system: STAT1 and IFNgamma responsive genes; assay: IFNgamma response of iPSC-derived intestinal cells in small microfluidic device; type: cell-based, human; settings: IFNgamma administered to the lower channel
Description: In one embodiment, iPSCs were directed to form HIOs and were subsequently dissociated to a single cell suspension. These cells were then seeded into a small microfluidic device (SMD) which is composed of two chambers separated by a porous flexible membrane. See, FIG. 40.

[7] = test system: Caco2 cells; assay: IFNgamma response of Caco-2 cells on chips; type: cell-based, human
[8] = human intestinal epithelial cells derived from IPSCs

O=C(O)C(F)(F)C(F)(F)C(F)(F)C(F)(F)C(F)(F)C(F)(F)C(F)(F)F [PFOA, perfluorooctanoic acid]
effect on spare respiratory capacity [1]: did not show any effect
effect on spare respiratory capacity [2]: did not show any effect

TNFalpha
transepithelial electrical resistance (TEER) ([3]; n=4): increased TEER over time comparable to controls
basal accumulation of FITC dextran [4, 8]: comparable
intestinal permeability ([4]; human intestinal epithelial cells derived from IPSCs, microfluidic cultures): does not elicit any change
permeability co-efficient (FITC dextran added to the apical channel) [4]: comparable
intestinal permeability ([5]; transwell system): does not elicit any change

tributyltin [TBT]
effect on spare respiratory capacity [2]: significant impairment

B1: IFNgamma: inflammatory cytokine interferon-gamma (protein, UniProt P01579 24-161, looked up)
Interferon gamma: QDPYVKEAENLKKYFNAGHSDVADNGTLFLGILKNWKEESDRKIMQSQIVSFYFKLFKNFKDDQSIQKSVETIKEDMNVKFFNSNKKKRDDFEKLTNYSVTDLNVQRKAIHELIQVMAELSPAAKTGKRKRSQMLFRG
transepithelial electrical resistance (TEER) ([3]; n=4): loss
transepithelial electrical resistance (TEER) ([3]; n=4, listed as IFNg): decrease
efflux of dextran FITC [4, 8]: increase
basal accumulation of FITC dextran ([4]; human intestinal epithelial cells derived from IPSCs, listed as IFNγ): basal accumulation
permeability co-efficient (FITC dextran added to the apical channel) [4]: increase
TEER / transepithelial resistance [5]: decrease
TEER / transepithelial resistance ([5]; listed as IFNγ): increase
IFNgamma responsive genes (IDO1, GBP4 and/or GBP5) [6]: significant upregulation
phospholipase A2 group 2A and Muc4 expression [6]: upregulated
phosphorylation of STAT1 [6]: phosphorylation
genes associated with intestinal epithelial subtypes ([7]; Caco2 cells): no corresponding upregulation
response to IFN-gamma (relative expression of gene markers) ([7]; Caco-2 epithelial cells grown on chips vs enteroids grown on chips): do not show the same response
